A protein production outcome set (Wang et al. 2014)

Assay: label from the status in PepcDB records

Row | Sequence | protein production
1 | MSKVALFAGGDLSYISRDFDYFVGIDRGSLFLLENGLPLNMAVGDFDSVSQKAFTDIKEKAELFITAHPEKNDTDTELALKEVFARFPEAEVTIFGAFGGRMDHLLSNIFLPSDPGIAPFMAQIALRDQQNMITYRPAGQHLIHQEEGMTYVAFMAEGEADLTITGAKFELTQDNFFKKKIYSSNAFIHQPITVSLPSGYLIIIQSKDWSLEHHHHHH | not failed
2 | MNYSKLKSIPIYFSLLAISVSNVGCVQQDVEANLTSKTLSENLDSKALRHKNKEQDIESLLAQLTLEEKISLVHANTKFANAAVERLGIHSMEMSDGPHGVRRQISRDSWKPAGWDDDQATYLPPLTAVAASWDPQMATLHGNVLGSEARHRNKDVILGPGVNLARLPLYGRNFEYLGEDPFLAAKLVVPEIIAIQANDVAATVKHFALNTQELNRHGVDATPDERTLREVYLPAFEAAVKEGNTYAMMGSYNNVYGTNANQNKHLIMDILKGEWGYQGLLMTDWDVDINTYDAAMNGLDLEMGTRAKSYDDYFLAKPLLKMIQSGKVPVAVLDDKVRRILRVQLSIGMMDKQRFSGQRNTQEHRDFSRQIATQGVVLLKNESVASANHTNTVLPLDKNKVKNILVLGPNADKKHGSGGGSSQVKSLWEITPLQGLKDKLGDNVEIQFMRARSQSGVQPIAEDFVKTNNRGTGTPAWRLIEYKTKDRNKKAAHYGWLPESSYNSPLGDVIQHINLKADIMPLASGEHVLKLGGKGNVNLVINGKEVINTTLSGDKTYQHKLTLKQGKKYVFTLGYDGADNVVLGWNAPGSPFSTKDEYLAAAKNADAVIYYAGLSHADDRESKDRSNMVLPNNQDDIISDLIAVNSTTVVFVIGGSAVEMPWAEQANAIVWGWYGGMEAGHSYADILFGDVNPSGKMPITLPKKLTDTAPIVLNDYNEKTSTYPEGVFIGYRWFEQQNIEPLFPFGHGLSYTHFSFGDISLNKDVISAGETITASVKITNTGKVAGAEVVQLYLHDEESSVPRPVKELKGFEKVFLQPGESQTVMLTLTQRDLSFWDVNTKNWLAEQGQFSVHIGSSVNDIKTSTSFSYQ | failed
3 | MNEPLSSLELLPEEEGGANLTYFAFAAPTASAPDLPAVLPGPLPDVLSGRYRLERMLGAGGMGTVYRARDLLHEQFGDPAPLVALKLLNESVAESPDASALLYSEFALTRRLRHPNVVRLFTFDVDTACQRAYIVMELMPGLPLDRLLCERPEGLPWSELSAIARPLLDVLAYVHEQGVLHGDLKPSNVMLGEEGVRLFDFGLGQAQAGILDGLPQLSRGRIDAWTPGYAAPELLEGAPLSPAADLYALACVLYELADGRHPFRRLPSNQAREQGLERQLRAPRHLPRRCWPALRTALSLDPERRCIGVRELQEALGARRSWLAGVLAR | failed
4 | MIFYKSKRLAFFLTSDIVLILLSVYLAFSLRFSGDIPSIFYHGMMVSAIILLVLKLSFLFVFRIYKVAWRFFSLNEARKIFIALLLAEFCFFLIFYFFSDFFNPFPRSAIVIDFVLSYMFIGTLRISKRMLVDFKPSRMKEEETPCIVVGATSKALHLLKGAKEGSLGLFPVGVVDARKELIGTYCDKFIVEEKEKIKSYVEQGVKTAIIALRLEQEELKKLFEELVAYGICDVKIFSFTRNEARDISIEDLLARKPKDLDDSAVAAFLKDKVVLVSGAGGTIGSELCKQCIKFGAKHLIMVDHSEYNLYKINDDLNLYKEKITPILLSILDKQSLDEVLKTYKPELILHAAAYKHVPLCEQNPHSAVINNILGTKILCDSAKENKVAKFVMISTDKAVRPTNIMGCTKRVCELYTLSMSDENFEVACVRFGNVLGSSGSVIPKFKAQIANNEPLTLTHPDIVRYFMLVAEAVQLVLQAGAIAKGGELFVLDMGKPVKIIDLAKKMLLLSNRNDLEIKITGLRKGEKLYEELLIDENDAKTQYESIFVAKNEKVDLDWLNKEIENLQICEDISEALLKIVPEFKHNKEGV | failed
5 | MNGTELRETLEDLIKEVVQASREALDTQGELNERNEAALRTLEAQWRQRLIEELHEQGSLRVVLCRTDLLVPGSGATGTTTTNRTDPLRYVYETLRQRDPRERRRSLPPERSSQSSELEDTGTDSGEALSSGDDDDEISQVAGQPEPETANYVLSQYERVLAPSTNKQRIWRVFLRDAMVHINGQDLLLNQLQCQFDW | not failed
6 | MSIRLRKTVMSVLLGALLAGNLLPAQADTQDRLPDIGTTAGGTLSINQELAMGDFYVRQLRAGAPLINDPLLSDYINQLGNRLVKQADSVRTPFHFYLIRNDDINAFAFFGGNVVLHSALFRYADSESELASVLAHEISHVTQRHLARSMESQQRSAPLTWVGALGSILLAMANPQLGMAALSGTLAGAQQGMITFTQSNEQEADRIGIQVLQRAGFDPQAMPNFLQKLADQSRYASRPPEMLLTHPLPESRLSDARNRANQMRPTPVQSSQDFLFAKIRTFGMYGSPDRPLNDDLLVQWEKGNVREQLAAKYGRAIQLYQAKKYDEARNVLQPLLSSAPDNPWFLDMMTDIDLGQNRAAQAIARLQNVTGMQANPVLQLNLANAYVEGKQPAAAGKILYRYTYAHPDDPNGWDLLAQTAAAQGQRAEELAARAESLALNGQLDQSIRLLSNASSLVKLGSLEQARYDARIDQLRQLQQRFRQYQKS | failed
7 | WYENYRWFFTSEGFLVIGGRTAEMNEEIVAKHLESLDLFFHTQTPGAPAVILKRGQEAGEESIREAAEFAATYSALWKEGKHAGEVYYVLPEQVSKSAKAGEYLPK | failed
8 | MSEATILVSGATGRTGGAAIDELLKSGKQVRAYVRSNDDRAAAFRKRGVEVAIGDFTGIDDIRAAMEGVTSAYFLHPIAPGIIGAAAYFAQAAKEAGVSAIVNMSQISARRESASHAAQDHWISERVFDWSGVATTHLRPTFFADWLVYPHFAKEIWAKKKIEFPFENGRHAPIATDDQGRVIAHILANPEGHGGKTYTLTGPIELNHTEIAAAMSEVLGAKIEYAPTSIDEFRNKMENVYKFPPFLTQHLVEVAQNYRDGIFSGANDAVEKITGTPALSVQQFIAQNRAVFA | failed
9 | RDTSVVVEHTSANPTGPVHVGRARNPIIGDAVARVLDYAGYDVDRHYYVNDAGRQIAVFTWAYETFDEDDLPEPERESPEYEMVRYYRKGNTILEDGDPDEVEAAEAEVQSILQGLEDGDEETYERVAEVVDTVLGGMQNTLGRLPAEFDEFVKETKFMRNGDTDDLVDRLKGLDCAVYEEDAWQLDLPDFEKNLVFLRSDGTSLYTTRDLAHHEWKFDTYDRAVTVLGEDHKLQADQLAAALELLDNDTDQLRQVFYSWVNLPEGGMSTREGTGIDLDDLLDEAIDRAREEVESRLDDRTRGDLDEDDIDRIARQVGIGAVRYDIVSKQPTKGITFEWDRALDFEAQSAPYVQYV | failed
10 | MFILSAQRLSGTQVFRRLAEGCTGYSVSSGCRQRRRCCPGAPQRPRRVRVNALQLQSGLADPLDPKSEAEVREHLRSNSPAERALGINYARYLDESTRYDILLEMMEDTDPQVRYAAVTQLATVGSHDRQRTLKAVRKILWNTEEDASVRAGAADVLGGLRFHEAFPDLEKLFHESKDWVVRFSIIAALGEMGVREAFPILVEALHANKEPLVQLAAIGALGELGDERARVYLEPLVNSSDASIVERARFALDALDARGSERT | not failed
11 | MASGSMSSYGSGSWTVKQNKAFERALAVYDQDTPDRWHNVARAVGGKTPEEAKRQYDLLVRDIESIENGHVPFPDYKTTTGNSNRGRLRDEEKRMRSMKLQ | failed
12 | MVMAPLPPVESLSLRQAIAQMIVVRGAGYLFDYERPYPQWEADQTTLQRWIEAGIGGVILLGGSAAEVAQKTKQLQSWAEIPLLIAADIEEGVGQRFRGATEFPPPMAFGEIWRTDPHQAIALAETMGATTAQEALSLGINWVLAPVLDVNNNPHNPVINIRAFGETPDQVSALGTAFIRGAQQYAVLTTAKHFPGHGDTATDSHLALPTISHDDTRLNTVELPPFKAAIQGGVDAVMNAHLMIPAWDQQYPATLSPAILTGQLRHKLGFKGLIVTDALVMGGITQFAAPDTVVVQAIAAGADILLMPPDVDGAIIAIETAIKTGQLSESRIYESVERIWQAKQKILTATPSTFPQGISGDRPETRKTVAMVLERATKHQKSLVKISSFPDNFARNLIVVDSVLKSPFLRPNCPAIAIPQRHGYAAEIVELKTLPRLQLEAIPTLIQCFLRGNPFTEKLADPIDVLQKIAAQIPLQGVIFYGSPYFLEALQTTLPEIPWWFSYGQMAIAQAEICTSLWEEAPQAAPSAAEFI | not failed
13 | MPKSMGMAVAVPVTLAVIAAGGAGVGAYMYNERNLALEELARQSELSGSIATLETEVAGLTSQVKAAEGQLGDLNGQLEAAKAELAEVQGQHDRLSSELEPMRAEIASFDSRKAEAEESTAKAIADFQAADARLKELTDREDNLRATVSKLAAEVQDLDRRMEGLRAESGALVAAAQSAARQRTDLQGMVETLAGLLATRSEELVQLERRIGEQDLKVPAAGPAPLAAAAGAASQAPDGAGAAEPAAKEAETAAPETDAAGQTASQAEGSEAGSQPAAEPEAAEADGGNGAAEEPEAGAQDEGADAAAEPAPTGASEDAPDDAAAEGSTAEAEAAPEASGSTAGASDDAASQGSTAASEEPEAAPPSEAPAKAEAPDLGAGTYGIGPLFATFSPDGSFTMRNVELDTSASGKWEVTDGLLTLSDPEGGSGSSSFPMLCQLVKEAEALKLAKAQTGSCPLAGMEIARR | failed
14 | MNLPKKVRLVEVGPRDGLQNEKQPIEVADKIRLVDDLSAAGLDYIEVGSFVSPKWVPQMAGSAEVFAGIRQRPGVTYAALAPNLKGFEAALESGVKEVAVFAAASEAFSQRNINCSIKDSLERFVPVLEAARQHQVRVRGYISCVLGCPYDGDVDPRQVAWVARELQQMGCYEVSLGDTIGVGTAGATRRLIEAVASEVPRERLAGHFHDTYGQALANIYASLLEGIAVFDSSVAGLGGCPYAKGATGNVASEDVLYLLNGLEIHTGVDMHALVDAGQRICAVLGKSNGSRAAKALLAKA | not failed
15 | MERNANYALVGAISLALFMGLVIFAVWLAKLSFNRDYDVYDILFVGPVRGLSQGGEVHFNGIKVGEVTRIELDKTDTNRVIARVRVTSDVPIKVDSYATLEPQGITGVNYVQITAGAPNKELLKDTVKTGKVPVIRTQRSALSDLLEGGGTVLTRTIEALDRVNRVLSDRNIKSFGATLTNVQAVTQEMRDRKEILADAQKALQSIDQTAQSITELSNSANTLVDGDAKRTLKELGDAAAELRATAKDARGMVTKLEGPASDFATTGLPQLSSAIVTLQSAAESLDRLVGEVEQNPRGVVGKAPAKEVEVKPLEHHHHHH | not failed
16 | MQSSSSLAPVAPIIFLAIAIAAINWIDLARGKNRTSVAYPLSLLTTLVLTAWFGIDAAGGETHYAFANLVVIDPMANVLAAFCSLGMLLTLIYTRSYLAERDMFAGEFYMLALFTLGGQIVMITGNNFLTLYLGLELLSLSSYALVALRRDSRVTSESAIKYFVLGALASGFLLYGMSMMYGATGSLNLGEVFRVVESGRVNTTMLAFGVVFIVAGVAFKLGAAPFHMWIPDIYQGSPTAVTLLIAAGPKVAAFALIIRLLVEGLLPLATDWQVMLVILSIASLVIGNLTAIVQTNLKRMLAYSTISHMGFVLLGMLSGVVANKADGAVNAYSSSMFYSITYMLTTLGTFGLILVRTRKGFEAETLDDLKGMSRRHPWFAFLMLVMMFSMAGIPPTVGFYAKLSVLQAVVSAGMSWLAVLAVVFSLIGAFYYLRIVKLMYFDAPVGEEPLEASTGLRSVLSLNGLAVILLGLFPAGLMDLCFQAIRATLAS | failed
17 | MQPETSAQYQHRFSQAIRGGEAADGLPQDRLNVYIRLIRNNIHSFIDRCYTETRQYFDSKEWSRLKEGFVRDARAQTPYFQEIPGEFLQYCQSLPLSDGILALMDFEYTQLLAEVAQIPDIPDIHYSNDSKYTPSPAAFIRQYRYDVTHDLQEAETALLIWRNAEDDVMYQTLDGFDMMLLEIMGSSALSFDTLAQTLVEFMPKADNWKNILLGKWSGWIEQRIIIPSLSAISENMEGNSPSQNHLSA | not failed
